Molecules are shown by their SMILES. Counter-ions that a name gives are not always drawn.

The series can be described thus: FIG. 6B. An excerpt:
Table printed on a drawing sheet, FIG. 6B
Footnotes: *N=2 with Animal 2 excluded.
First reader's note: Each Cmax and AUC0-t cell holds the value together with its SD; the sheet prints no units for Cmax or AUC0-t.
As to `CCCN1C[C@H](CSCC(=O)NCCCC[C@@H](NC(=O)CSC[C@@H]2C[C@@H]3c4cccc5[nH]cc(c45)C[C@H]3N(CCC)C2)C(=O)N[C@H]2CSSC[C@@H](C(=O)N[C@H](C(N)=O)[C@@H](C)O)NC(=O)[C@H](CC)NC(=O)[C@H](CCCCN)NC(=O)[C@@H](Cc3c[nH]c4ccccc34)NC(=O)[C@H](Cc3ccc(O)cc3)NC2=O)C[C@@H]2c3cccc4[nH]cc(c34)C[C@H]21` [TBR-760 Acetate*], the “Tmax (median in hr)” value worked out at 24 h.

With `CCCN1C[C@H](CSCC(=O)NCCCC[C@@H](NC(=O)CSC[C@@H]2C[C@@H]3c4cccc5[nH]cc(c45)C[C@H]3N(CCC)C2)C(=O)N[C@H]2CSSC[C@@H](C(=O)N[C@H](C(N)=O)[C@@H](C)O)NC(=O)[C@H](CC)NC(=O)[C@H](CCCCN)NC(=O)[C@@H](Cc3c[nH]c4ccccc34)NC(=O)[C@H](Cc3ccc(O)cc3)NC2=O)C[C@@H]2c3cccc4[nH]cc(c34)C[C@H]21` [TBR-760 Mesylate], the “Tmax (median in hr)” value was 30 h.

For `CCCN1C[C@H](CSCC(=O)NCCCC[C@@H](NC(=O)CSC[C@@H]2C[C@@H]3c4cccc5[nH]cc(c45)C[C@H]3N(CCC)C2)C(=O)N[C@H]2CSSC[C@@H](C(=O)N[C@H](C(N)=O)[C@@H](C)O)NC(=O)[C@H](CC)NC(=O)[C@H](CCCCN)NC(=O)[C@@H](Cc3c[nH]c4ccccc34)NC(=O)[C@H](Cc3ccc(O)cc3)NC2=O)C[C@@H]2c3cccc4[nH]cc(c34)C[C@H]21` [TBR-760 Tosylate], the “Tmax (median in hr)” value stood at 30 h.

(Values after patent publication US20210338782A1, “STORAGE STABLE SOMATOSTATIN-DOPAMINE CHIMERIC COMPOUNDS AND SALT FORMS THEREOF” (Cydan II, Inc., priority 2019, published 2021).)
